Measurements published in article PMC12364711.

Biological target: superGmFLS2, C-terminal mEGFP (soybean (Glycine max))

Substance: NbBAK1 (BRASSINOSTEROID … 1-ASSOCIATED KINASE 1 of Nicotiana benthamiana), C-terminal 4xHA (receptor)
- total flg22^Rso-induced ROS production in N. benthamiana fls2 leaves, against wild-type GmFLS2b: > 3 fold
